Experimental data as given in the RNAGym collection of RNA variant scans (doi:10.7554/elife.80360).

B1: CPEB3 Ribozyme (parent)
chain: GGGGGCCACAGCAGAAGCGUUCACGUCGCGGCCCCUGUCAGAUUCUGGUGAAUCUGCGAAUUCUGCUGU

Variants of: B1
Experiment: self-cleavage, relative activity (ratio to wild type); higher = more cleavage; co-transcriptional

Variant | self-cleavage
C9A A51U | 1.04
C9A A51G | 1.03
C9A A51C | 1.03
A8G C45U | 0.8
A8G C45A | 0.8
A8C G41U | 0.78
A8C G41A | 0.89
A8U C54U | 1.03
A8U C54G | 0.919
A8U C54A | 0.857
A8U G11A | 0.906
A8U G11U | 0.902
A8U U62C | 0.994
A8G A59U | 0.401
A8G A59G | 0.897
A8G A59C | 0.162
A8U A13C | 0.855
A8U A13G | 1.02
C9A A40U | 0.969
C9A A40C | 0.71
A8U C33G | 0.685
A8U C27U | 0.294
A8U C27G | 0.163
A8U C27A | 0.615

Variant | self-cleavage
A8U U55C | 0.912
A8U U55G | 0.823
A8G C29G | 0.496
A8G C29A | 0.647
A8G C29U | 0.761
A8C G30U | 0.492
A8C G30C | 0.758
A8C G30A | 0.951
A8C U55G | 0.851
A8C U55A | 0.969
A8U C24G | 0.444
A8U C24U | 0.713
A8U C24A | 0.763
A8C G17U | 0.444
A8C G17C | 0.165
A8U C45U | 1.03
A8G G37C | 0.123
A8U G58C | 0.988
A8U G58U | 1.03
A8U U61G | 0.959
A8U U61A | 0.944
A8G C9U | 0.954
A8G C9G | 0.915
A8U G25C | 0.0896

Variant | self-cleavage
A8U G25A | 0.179
A8U U69A | 1.05
A8U U69C | 1.06
A8U U53C | 0.901
A8U G31A | 0.925
A8U G31C | 0.247
A8U G31U | 0.806
A8U G30C | 0.849
A8U G30A | 0.963
A8C U49C | 1
A8C U49G | 1.01
A8C U49A | 1.06
A8C U44C | 0.896
A8C U44A | 0.944
A8U G68A | 0.991
A8U G68U | 1.03
A8U G68C | 1.02
A8U U20C | 0.25
A8U U20G | 0.163
A8U U20A | 0.116
A8G U43G | 0.398
A8G U43A | 0.401
C9A A59C | 0.854
C9A A59G | 1.03

Variant | self-cleavage
A8G C35A | 0.217
A8G C35G | 0.341
A8U C39A | 0.864
A8U C39G | 0.988
A8G C22U | 0.074
A8G C22A | 0.136
A8G C22G | 0.0752
A8U A16G | 0.947
A8U A16U | 0.867
A8U A16C | 0.309
A8G C18A | 0.12
A8G C18G | 0.0214
A8G C18U | 0.207
C9A A42C | 0.999
A8G G48U | 0.943
A8G G48A | 0.939
A8C U38C | 0.9
A8G A60G | 0.393
A8G A60U | 0.25
A8G G17U | 0.103
A8G G17A | 0.0671
A8G G17C | 0.0831
C9A A60G | 1.04
C9A A60U | 0.632

Variant | self-cleavage
C9A A60C | 0.364
A8G U49G | 0.895
A8G U49A | 0.938
A8G U49C | 0.828
A8G A40U | 0.333
A8G A40G | 0.723
A8G A40C | 0.103
A8G G31U | 0.649
A8G G31A | 0.865
A8G U67G | 0.64
A8G U67C | 0.573
A8U G37U | 0.221
A8U G37A | 0.215
A8G U64C | 0.361
A8G U64A | 0.242
A8U C35A | 0.257
A8U C35U | 1.01
A8C G65A | 0.928
A8C G65U | 0.676
A8U C29G | 0.183
A8U C29U | 0.84
A8G A15U | 0.144
A8G A15C | 0.0691
A8U G50A | 1.03

Variant | self-cleavage
A8U G50C | 1
A8G G30A | 0.861
A8G G30C | 0.602
A8G G30U | 0.335
A8G U46G | 0.86
A8G U46A | 0.99
A8G U46C | 0.83
A8G G58C | 0.843
A8C G47A | 1.02
A8G A23G | 0.623
A8G A23U | 0.858
A8G A51C | 0.706
A8C U21C | 0.854
A8C G48U | 1.02
A8C G48C | 1.02
C9A A23U | 1
C9A A23G | 1.02
A8U C18G | 0.142
A8U C18A | 0.177
A8C G25C | 0.113
A8C G25A | 0.148
A8U C12G | 0.897
A8U C12A | 0.683
A8U A59U | 0.799

Variant | self-cleavage
A8U A59C | 0.601
A8U A52G | 1.03
A8U A52U | 0.986
A8U A51U | 0.999
A8U A51G | 1
A8C G31C | 0.267
A8C G31U | 0.664
A8C U69A | 1.01
A8C U69G | 1.04
A8G C32A | 0.701
C9A A16U | 0.957
A8U A10U | 0.998
A8U U46G | 1.01
A8U U46A | 1
A8U U46C | 0.998
A8U G65C | 0.644
A8U G65U | 0.768
A8G U53G | 0.646
A8U C57G | 0.272
A8G G56C | 0.233
A8G G56A | 0.562
A8G G56U | 0.446
A8C U46C | 0.979
A8C U46A | 0.981

Variant | self-cleavage
C9A C18U | 0.919
C9A C18A | 0.188
A8U C66G | 0.826
A8G G19C | 0.161
A8G G19U | 0.0891
A8G G11C | 0.0914
A8G G11A | 0.26
A8G G11U | 0.189
C9A C24G | 0.697
A8G C33A | 0.73
A8G C33U | 0.833
A8U G41C | 0.809
A8U G41U | 0.877
A8G C12U | 0.444
A8G C12G | 0.133
A8G C12A | 0.175
A8G A13U | 0.0712
C9A A15G | 1.03
A8C G68C | 1
A8C G68U | 1.02
A8G G65A | 0.224
A8G A10U | 0.69
A8U A60G | 0.939
A8U A60C | 0.432

Variant | self-cleavage
A8U A60U | 0.457
A8C G28U | 0.154
A8C G28C | 0.122
A8G G68C | 0.851
A8G G68U | 0.841
A8G G68A | 0.912
A8G A16U | 0.457
A8U G48A | 1.03
A8U G48C | 0.994
A8G U38C | 0.696
A8G G41C | 0.304
A8G G41U | 0.254
A8G G41A | 0.222
C9A A10U | 1.05
A8U U36C | 0.887
A8U U36A | 0.229
A8U G17C | 0.141
A8U G17U | 0.491
A8G G25A | 0.113
A8G G25C | 0.0474
A8G G25U | 0.1
A8U A42U | 0.995
A8U A42C | 0.972
A8G C27A | 0.0861

Variant | self-cleavage
A8G C27U | 0.0734
A8C U53G | 0.89
A8C U53A | 0.919
A8C U53C | 0.902
A8G G14C | 0.125
A8G G14A | 0.13
A8G G14U | 0.0849
A8G C24A | 0.446
A8G C24G | 0.15
A8G C24U | 0.174
A8U U44C | 0.933
A8U U44G | 0.932
A8C U61G | 0.937
A8C U61C | 0.776
A8C G56C | 0.83
A8C G56A | 0.999
A8U A23U | 1
A8U A23G | 0.965
A8C G58A | 0.944
A8U U38A | 0.871
A8U U38G | 0.221
A8U U38C | 1.01
A8U U43C | 0.951
A8U U43A | 0.899

Variant | self-cleavage
A8U C9U | 1.02
A8U C9G | 1.01
C9A C12U | 1.02
C9A C12G | 0.936
A8G U20G | 0.0536
A8G U20C | 0.09
A8G C39G | 0.537
A8G C39A | 0.242
A8G C66U | 0.5
A8G C66A | 0.249
A8G C66G | 0.294
A8U U21G | 0.588
A8U U21C | 0.846
A8G G28U | 0.137
A8G G28C | 0.102
A8G G28A | 0.0955
A8U G14A | 0.827
A8U G14U | 0.785
A8G C63G | 0.164
A8G C63A | 0.253
A8G C63U | 0.612
A8G U21C | 0.584
A8G C54G | 0.343
A8G C54U | 0.805

Variant | self-cleavage
A8G C54A | 0.331
A8G G47C | 0.945
A8G G47U | 0.92
A8G C34G | 0.665
A8G A42C | 0.59
A8G A42U | 0.622
A8G A42G | 0.536
A8C U20C | 0.166
A8C U20A | 0.114
A8U G19A | 0.198
A8U C63A | 0.891
A8G G50C | 0.791
A8C G37U | 0.257
A8C G37A | 0.207
A8U U64A | 0.969
A8G U61G | 0.284
A8G U61C | 0.142
A8G C57G | 0.203
A8G C57A | 0.126
A8G U55C | 0.282
A8G U55G | 0.134
A8U G28C | 0.101
A8U C22G | 0.133
A8U C22U | 0.203

Variant | self-cleavage
A8U A40C | 0.639
A8U A40U | 0.781
A8C U36G | 0.192
A8C U36A | 0.205
A8C U36C | 0.819
A8G U36A | 0.135
A8C U62C | 0.841
A8C U62G | 0.9
A8C U62A | 0.898
A8G U44C | 0.55
A8U A15U | 0.882
A8U A15G | 0.998
A8U G56U | 0.972
A8U G56A | 0.957
A8C U67A | 1.04
A8U C34G | 0.718
A8U C34A | 0.854
A8U C34U | 0.985
A8G A52C | 0.768
A8G A52U | 0.803
A8G A52G | 0.902
A8U | 1.01
A8G | 0.929
C9A C27G | 0.256

Variant | self-cleavage
A8U C32G | 0.368
A8U C32U | 0.944
A8U C32A | 0.877
A8U U26A | 0.893
A8U U26G | 0.97
A8U U26C | 0.924
A8C G19A | 0.189
A8U G47C | 1.03
A8U G47A | 1.01
A8U G47U | 0.999
A8U U49G | 1.02
A8C U64G | 0.892
A8C U64C | 0.86
A8G U26C | 0.325
A8G U26G | 0.622
A8G U26A | 0.644
C9A A13G | 0.901
C9A A13U | 0.725
A8G U62C | 0.253
A8G U62A | 0.394
A8U U67G | 1.03
A8G U69G | 1.04
